{"source": "paper PMC11321707", "key": {"[1]": {"assay": "1H-15N HSQC NMR (signal loss and chemical shift perturbation upon self-assembly); R5 in phosphate-buffered solution, 50 mM Pi, pH 6.5, 25 °C; compared with R5 without Pi", "conditions": "other: 1H-15N HSQC NMR (signal loss and chemical shift perturbation upon self-assembly)"}, "[2]": {"assay": "1H-15N HSQC NMR (signal loss and chemical shift perturbation upon self-assembly); R5 in phosphate-buffered solution, 11.8 mM Pi, pH 6.5, 25 °C; compared with R5 without Pi", "conditions": "other: 1H-15N HSQC NMR (signal loss and chemical shift perturbation upon self-assembly)"}, "[3]": {"assay": "diffusion-ordered NMR spectroscopy (DOSY); R5 in the presence of Pi, 25 °C; hydrodynamic radius by Stokes-Einstein, spherical model; monomer to trimer", "conditions": "other: diffusion-ordered NMR spectroscopy (DOSY)"}}, "data": [{"substance": "R5 peptide", "values": [{"measurement": "percent of the peptides outside the large self-assemblies, with Pi", "setting": "[1]", "value": "≈0.7 and ≈0.01% of the peptides remained outside the large self‐assemblies"}, {"measurement": "percent of the peptides outside the large self-assemblies, with Pi", "setting": "[2]", "value": "≈0.7 and ≈0.01% of the peptides remained outside the large self‐assemblies"}, {"measurement": "N with Pi", "setting": "[3]", "value": "an aggregate volume that fits three R5 units"}]}]}
